{"source": "paper PMC2856455", "about": "(Journal of molecular biology, 2010)", "key": {"MDMX": {"target": "T1, MDMX (Homo sapiens, UniProt O15151)", "T1 sequence (O15151 24-108)": "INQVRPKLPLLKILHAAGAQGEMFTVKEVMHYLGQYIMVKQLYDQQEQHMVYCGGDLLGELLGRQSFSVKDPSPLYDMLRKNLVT", "experiment": "SPR-based competition binding assay, synthetic 24–108MDMX"}, "MDM2": {"target": "MDM2 (Homo sapiens, UniProt Q00987)", "experiment": "SPR-based competition binding assay, synthetic 25–109MDM2"}, "[1]": {"conditions": "calculated binding free energy relative to PMI"}}, "data": [{"sequence": "TSFAEYWNLASP [L10A-PMI]", "values": [{"measurement": "ΔΔG, PMI-MDMX", "setting": "MDMX; [1]", "result": 2.28, "unit": "kcal/mol"}, {"measurement": "Kd ratio (kcal/mol), PMI-MDMX", "setting": "MDMX; relative to PMI", "result": 50, "unit": "kcal/mol"}, {"measurement": "ΔΔG(kcal/mol), PMI-MDM2", "setting": "MDM2; [1]", "result": 3.28, "unit": "kcal/mol"}, {"measurement": "preference between MDM2 and MDMX", "setting": "MDM2; comparison of binding affinities for MDM2 and MDMX", "result": "higher binding affinity for MDMX than for MDM2"}, {"measurement": "difference in relative binding free energy, MDM2 versus MDMX", "setting": "MDM2; mutation more deleterious to MDM2 than to MDMX", "result": 1.0, "unit": "kcal/mol"}, {"measurement": "Kd ratio, PMI-MDM2", "setting": "MDM2; relative to PMI", "result": 277}]}]}
